These results are taken from paper doi:10.1101/2023.06.06.543969 (bioRxiv, 2023).

Holding throughout (test): BLI
Holding throughout (settings): both partners purified

The target in test [1] is T1, biotinylated αTSR domain of P. falciparum circumsporozoite protein (Plasmodium falciparum 3D7 (by PDB 7RXI)).
T1 construct: also called P. falciparum CSP; C-terminal αTSR domain of P. falciparum circumsporozoite protein
T1 chain: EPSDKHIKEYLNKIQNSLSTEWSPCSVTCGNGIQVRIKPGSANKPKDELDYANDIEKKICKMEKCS

In test [2] the target is influenza hemagglutinin (HA) from H1N1 A/California/07/2009 (Influenza A virus H1N1 …, UniProt C3W5X2, biotinylated).
For test [3], the target named is T2, His6-tagged SARS-CoV-2 receptor-binding domain (SARS-CoV-2, UniProt P0DTC2).
T2 construct: source: High Five cells, purified (Ni-NTA, size exclusion)

B1: Fab234 (WT) (Fab, V domains shown)
VH: EVQLVESGGGLVKPGGSLRLSCAASGFNFSTHIMNWVRQAPGKGLEWVSSISSSGTYIYYADSMKGRFTISRDNPKNSLYLQMNSLRAEDTAVYYCARARGFIQFHYYMDVWGKGTTVAVSS
VL: SYVLTQPPSVSVAPGKTARITCGGNNIGSKSVHWHQQRPGQAPVLVVYDDKIRPSGIPERFSGSNSGNTATLIISRVEAGDEADYYCQVWHSSSDPVVFGGGTKLTVL
B1: the binding result in test [1] is given as “binds”.

B2: 5J8 Fab (WT) (Fab, V domains shown)
VH: EVQLVESGPGLVKPSDILSLTCAVSGYSISSNYYWGWIRQPPGKGLEWIGSIYHSGSTYYKPSLESRLGISVDTSKNQFSLKLSFVSAADTAVYYCARHVRSGYPDTAYYFDKWGQGTLVTVSS
VL: SYVLTQPPSVSVAPGETARISCGGNNIGTKVLHWYQQTPGQAPVLVVYDDSDRPSGIPERFSGSNSGNTATLTISRVEVGDEADYYCQVWDISTDQAVFGGGTKLTVL
notes: also called IGLV3–21 antibody 5J8; source: ExpiCHO, transiently co-transfected, purified (CaptureSelect CH1-XL)
Turning to B2, in test [2], the binding result was “binds”.

B3: GAR12 Fab VL D50K (Fab, V domains shown)
VH: EVQLVQSGGGLVQPGGSLRLSCAASGFTFSSYAMSWVRQAPGKGLEWVLSISGSGGSTYYADSVKGRFTISIDNSKKTVYLQMNSLRAEDTAVYYCAKSGEQQLVQAEYFHHWGQGTLVTVSS
VL: DIQMTQSPSTLSASVGDRVTITCRASQSIGRWLAWYQQKPGKAPKLLIYKASSLESGVPSRFSGSGFGTEFTLTISSLQPDDFATYYCQQCDSLLTFGGGTKLEIK
notes: also called GAR12 VL D50K; source: ExpiCHO, transiently co-transfected, purified (CaptureSelect CH1-XL)
Turning to B3, the “fold change in KD against the wild type” value in test [3] worked out at 44 fold.
